The values below come from paper PMC10380284, “Investigating the Prevalence of RNA-Binding Metabolic Enzymes in E. coli” (International Journal of Molecular Sciences, 2023).

In series [1] the target is T1, quinone oxidoreductase (QorA) (Escherichia coli, UniProt P28304).
T1 construct: full-length ORF from ASKA library (pCA24N), N-terminal His-tag, expressed in E. coli BL21-Gold (DE3), IMAC and size exclusion
T1 sequence (P28304 1-327): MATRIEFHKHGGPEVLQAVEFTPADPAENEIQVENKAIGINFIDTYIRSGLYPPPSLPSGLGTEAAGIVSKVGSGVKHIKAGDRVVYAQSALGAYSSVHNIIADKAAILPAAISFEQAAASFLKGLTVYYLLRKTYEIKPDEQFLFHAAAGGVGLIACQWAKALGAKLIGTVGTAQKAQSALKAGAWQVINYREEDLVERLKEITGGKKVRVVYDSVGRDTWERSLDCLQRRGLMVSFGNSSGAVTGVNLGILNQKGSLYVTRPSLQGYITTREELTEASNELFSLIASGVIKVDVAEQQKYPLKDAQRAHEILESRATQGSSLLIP
Put plainly: NMR shift experiment; also competition with RNA in EMSA and MST. Type of series: binding. The following applies: 10-20 mM NADPH in the EMSA / MST competition with yffO mRNA fragment; pH 7.5.

Series [2] has as its target T2, Quinone oxidoreductase QorA (Escherichia coli K12, UniProt P28304 1-327).
T2 sequence: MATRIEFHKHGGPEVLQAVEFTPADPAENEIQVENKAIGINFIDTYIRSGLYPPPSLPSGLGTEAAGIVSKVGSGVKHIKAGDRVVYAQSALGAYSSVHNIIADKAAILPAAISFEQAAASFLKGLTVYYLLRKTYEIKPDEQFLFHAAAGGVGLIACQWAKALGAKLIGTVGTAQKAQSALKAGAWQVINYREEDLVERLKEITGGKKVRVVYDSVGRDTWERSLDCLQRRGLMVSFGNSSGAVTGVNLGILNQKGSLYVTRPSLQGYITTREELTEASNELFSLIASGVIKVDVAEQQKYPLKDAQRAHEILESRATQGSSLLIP
Put plainly: EMSA; 350 nM RNA; 50 mM Tris (HEPES for PykF), 80 mM NaCl, 10 mM KCl, 0.8 mM MgCl2, 0.5 mM DTT, pH 7.5, 30 min at 37 C (EMSA); MST same buffer + 0.05% Tween-20. The following applies: protein: recombinant; tags: N-terminal His (pCA24N, ASKA); label: 5' 32P.

Series [3] addresses T2, Quinone oxidoreductase QorA. In words: MST; 0.05% Tween-20; 10 nM RNA; 50 mM Tris (HEPES for PykF), 80 mM NaCl, 10 mM KCl, 0.8 mM MgCl2, 0.5 mM DTT, pH 7.5, 30 min at 37 C (EMSA); MST same buffer + 0.05% Tween-20. The following applies: protein: recombinant; tags: N-terminal His (pCA24N, ASKA); label: Cy5. In general terms: A gel shift assay detects complexes by their altered migration in electrophoresis.

Series [4] concerns the target MS2 phage coat protein (bacteriophage MS2, UniProt P03612 2-130). In words: EMSA; 0.34-34 uM protein, 700 nM RNA; 50 mM Tris (HEPES for PykF), 80 mM NaCl, 10 mM KCl, 0.8 mM MgCl2, 0.5 mM DTT, pH 7.5, 30 min at 37 C (EMSA); MST same buffer + 0.05% Tween-20. The settings on record: protein: recombinant; chain copies: 2; label: 5' 32P; hairpin.
Series [5] addresses T3, Phosphoglycerate kinase Pgk (Escherichia coli K12, UniProt P0A799 1-387).
T3 sequence: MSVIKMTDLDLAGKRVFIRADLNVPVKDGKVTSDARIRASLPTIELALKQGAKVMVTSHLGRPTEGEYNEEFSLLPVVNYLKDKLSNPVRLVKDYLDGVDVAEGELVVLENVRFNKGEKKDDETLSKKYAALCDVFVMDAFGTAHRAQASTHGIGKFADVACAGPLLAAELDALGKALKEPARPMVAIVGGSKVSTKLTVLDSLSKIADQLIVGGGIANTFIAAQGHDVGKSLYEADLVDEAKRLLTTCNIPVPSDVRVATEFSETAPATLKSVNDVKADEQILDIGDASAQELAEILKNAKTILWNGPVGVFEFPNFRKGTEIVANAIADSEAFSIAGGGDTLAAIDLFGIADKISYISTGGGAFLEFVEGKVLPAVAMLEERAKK
In words: EMSA; 30 uM Pgk, 7 uM RNA; stronger than hairpins; 50 mM Tris (HEPES for PykF), 80 mM NaCl, 10 mM KCl, 0.8 mM MgCl2, 0.5 mM DTT, pH 7.5, 30 min at 37 C (EMSA); MST same buffer + 0.05% Tween-20. The following applies: protein: recombinant; tags: N-terminal His (pCA24N, ASKA); label: 5' 32P; linear.

What is called Kd is the concentration at which binding is half-saturated.

Chain of MS2 phage coat protein (P03612 2-130): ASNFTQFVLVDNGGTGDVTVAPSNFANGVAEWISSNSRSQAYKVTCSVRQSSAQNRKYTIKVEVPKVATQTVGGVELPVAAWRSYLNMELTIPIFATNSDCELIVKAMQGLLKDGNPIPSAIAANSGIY

Consider `NC(=O)C1=CN([C@@H]2O[C@H](COP(=O)(O)OP(=O)(O)OC[C@H]3O[C@@H](n4cnc5c(N)ncnc54)[C@H](OP(=O)(O)O)[C@@H]3O)[C@@H](O)[C@H]2O)C=CC1` [NADPH], for which, in series [1], the “NMR shift experiment; also competition with RNA in EMSA and MST” value is “NMR shift experiments that revealed larger peak shifts for the QorA-NADPH complex”.

B1: yffO mRNA fragment, 27 nt (ssRNA)
RNA: GGAGCAUAUGGACUUCAGGGAAGGGAU
On to B1, for which, in series [2], the equilibrium dissociation constant (Kd) is around 7 µM.

B2: Cy5-yffO mRNA fragment (ssRNA)
RNA: GGAGCAUAUGGACUUCAGGGAAGGGAU
Regarding B2, in series [3], the dissociation constant Kd is around 7 µM.

B3: rffG mRNA fragment (ssRNA)
RNA: GCACGCGUAUUCACUGAGCAUCAGCCAGACUGUGU
Regarding B3, in series [4], the binding result is on record as “binds”.

B4: A-rich linear control RNA (ssRNA)
RNA: AGGACAAAAACAA
In the case of B4, the binding result in series [5] is “binds”.
